This experiment concerns the target TGF-β receptors on cultured rat primary hepatic stellate cells. Kind of experiment: cell-based or functional assay.

The substance “purified recombinant NS3 protein (scNS4A-NS3 protease with trx-His-S tag) (enzyme)” displayed an expression of the Collagen(I) α1 gene in cultured rat primary hepatic stellate cells of 6 times.
